Laboratory results reported in US20190106510A1 (CELLDEX THERAPEUTICS, published 2019).
Residue numbers refer to the chain shown, from its start.

T1: murine KIT (murine, UniProt P05532 25-527, limits assumed)
T1 sequence (looked up): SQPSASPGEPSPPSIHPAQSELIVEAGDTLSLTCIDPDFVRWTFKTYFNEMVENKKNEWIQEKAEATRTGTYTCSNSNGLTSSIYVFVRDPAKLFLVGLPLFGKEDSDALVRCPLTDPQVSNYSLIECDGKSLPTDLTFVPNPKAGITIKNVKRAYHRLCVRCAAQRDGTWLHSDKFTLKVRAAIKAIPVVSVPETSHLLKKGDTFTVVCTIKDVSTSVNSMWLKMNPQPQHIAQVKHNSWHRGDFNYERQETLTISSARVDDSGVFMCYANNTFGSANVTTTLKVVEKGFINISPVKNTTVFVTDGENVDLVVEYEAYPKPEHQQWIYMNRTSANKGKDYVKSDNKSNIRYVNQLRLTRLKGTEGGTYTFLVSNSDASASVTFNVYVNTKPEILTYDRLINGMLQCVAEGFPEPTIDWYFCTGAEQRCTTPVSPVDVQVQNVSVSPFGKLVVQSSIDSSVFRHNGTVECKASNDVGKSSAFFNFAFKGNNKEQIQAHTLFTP

B1: Hum4 (antibody, V domains shown)
VH: QVQLVQSGAEVKKPGASVKVSCKASGYTFTDYYINWVRQAPGKGLEWIARIYPGSGNTYYNEKFKGRATITADKSTSTAYMELSSLRSEDTAVYFCARGVYYFDYWGQGTTVTVSS
VL: DIVMTQSPSFLSASVGDRVTITCKASQNVRTNVAWYQQKPGKAPKALIYSASYRYSGVPDRFTGSGSGTDFTLTISSLQSEDFADYFCQQYNSYPRTFGGGTKVEIK
B2: Hum19 (antibody, V domains shown)
VH: B1 VH
VL: B1 VL with F10S, A46S, T63S, S80P, D85T, F87Y
B3: Hum15 (antibody, V domains shown)
VH: B1 VH with A68V
VL: B1 VL with F10S, T63S, S80P
B4: Hum14 (antibody, V domains shown)
VH: B1 VH
VL: B1 VL with F10S, T63S, S80P
B5: Hum9 (antibody, V domains shown)
VH: B1 VH
VL: B1 VL with F10S, S80P
B6: Hum18 (antibody, V domains shown)
VH: B1 VH with V20L, I70L, E82Q
VL: B1 VL with F10S, A46S, T63S, S80P, D85T, F87Y
B7: Hum13 (antibody, V domains shown)
VH: B1 VH with V20L, I70L, E82Q
VL: B1 VL with F10S, T63S, S80P
B8: Hum6 (antibody, V domains shown)
VH: B1 VH with V11L, V20L, R38K, I70L, D73E, E82Q, T91S
VL: B1 VL with F10S, S80P
B9: Hum12 (antibody, V domains shown)
VH: B1 VH with V20L, R38K, I70L, D73E, E82Q
VL: B1 VL with F10S, T63S, S80P
B10: Hum20 (antibody, V domains shown)
VH: B1 VH with A68V
VL: B1 VL with F10S, A46S, T63S, S80P, D85T, F87Y
B11: Hum7 (antibody, V domains shown)
VH: B1 VH with V20L, R38K, I70L, D73E, E82Q
VL: B1 VL with F10S, S80P
B12: Hum16 (antibody, V domains shown)
VH: B1 VH with V11L, V20L, R38K, I70L, D73E, E82Q, T91S
VL: B1 VL with F10S, A46S, T63S, S80P, D85T, F87Y
B13: Hum1 (antibody, V domains shown)
VH: B1 VH with V11L, V20L, R38K, I70L, D73E, E82Q, T91S
VL: B1 VL
notes: Variable regions cloned into expression vectors for human IgG1 VH chains and human V kappa chains
B14: Hum5 (antibody, V domains shown)
VH: B1 VH with A68V
VL: B1 VL
B15: Hum11 (antibody, V domains shown)
VH: B1 VH with V11L, V20L, R38K, I70L, D73E, E82Q, T91S
VL: B1 VL with F10S, T63S, S80P
B16: Hum3 (antibody, V domains shown)
VH: B1 VH with V20L, I70L, E82Q
VL: B1 VL
B17: Hum2 (antibody, V domains shown)
VH: B1 VH with V20L, R38K, I70L, D73E, E82Q
VL: B1 VL

Biological target: T2, recombinant KIT D4/D5 (human, UniProt P10721 26-519)
T2 construct: also called recombinant c-Kit Ig-like domains D4/D5; recombinant polypeptide of the D4/D5 region of human KIT
Test: direct binding ELISA, plate-coated recombinant KIT D4/D5; assay #4 (purified)
Description: (§1) The binding affinity of the anti-KIT antibodies to the target antigen KIT Ig-like domains D4/D5 was assessed by direct binding ELISA. […] Bound antibody was detected with anti-human Ig-HRP followed by detection using TMB substrate.

T2 sequence (P10721 other isoform, or with tags, fused parts or gaps limits assumed): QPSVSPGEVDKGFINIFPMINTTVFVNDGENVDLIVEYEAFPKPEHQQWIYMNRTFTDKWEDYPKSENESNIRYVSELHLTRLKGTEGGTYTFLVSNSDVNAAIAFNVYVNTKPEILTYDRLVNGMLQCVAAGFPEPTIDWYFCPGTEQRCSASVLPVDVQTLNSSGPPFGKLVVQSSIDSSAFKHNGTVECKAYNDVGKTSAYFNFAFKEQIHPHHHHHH

Relative binding activity	Binder
0.83 relative to chimeric antibody 37C (normalized EC50)	B1
0.85 relative to chimeric antibody 37C (normalized EC50)	B2

Biological target: T3, full-length, wild-type human KIT expressed on CHO cells (human, UniProt P10721 26-976)
Test: cell-based or functional assay

T3 sequence (P10721 other isoform, or with tags, fused parts or gaps limits assumed): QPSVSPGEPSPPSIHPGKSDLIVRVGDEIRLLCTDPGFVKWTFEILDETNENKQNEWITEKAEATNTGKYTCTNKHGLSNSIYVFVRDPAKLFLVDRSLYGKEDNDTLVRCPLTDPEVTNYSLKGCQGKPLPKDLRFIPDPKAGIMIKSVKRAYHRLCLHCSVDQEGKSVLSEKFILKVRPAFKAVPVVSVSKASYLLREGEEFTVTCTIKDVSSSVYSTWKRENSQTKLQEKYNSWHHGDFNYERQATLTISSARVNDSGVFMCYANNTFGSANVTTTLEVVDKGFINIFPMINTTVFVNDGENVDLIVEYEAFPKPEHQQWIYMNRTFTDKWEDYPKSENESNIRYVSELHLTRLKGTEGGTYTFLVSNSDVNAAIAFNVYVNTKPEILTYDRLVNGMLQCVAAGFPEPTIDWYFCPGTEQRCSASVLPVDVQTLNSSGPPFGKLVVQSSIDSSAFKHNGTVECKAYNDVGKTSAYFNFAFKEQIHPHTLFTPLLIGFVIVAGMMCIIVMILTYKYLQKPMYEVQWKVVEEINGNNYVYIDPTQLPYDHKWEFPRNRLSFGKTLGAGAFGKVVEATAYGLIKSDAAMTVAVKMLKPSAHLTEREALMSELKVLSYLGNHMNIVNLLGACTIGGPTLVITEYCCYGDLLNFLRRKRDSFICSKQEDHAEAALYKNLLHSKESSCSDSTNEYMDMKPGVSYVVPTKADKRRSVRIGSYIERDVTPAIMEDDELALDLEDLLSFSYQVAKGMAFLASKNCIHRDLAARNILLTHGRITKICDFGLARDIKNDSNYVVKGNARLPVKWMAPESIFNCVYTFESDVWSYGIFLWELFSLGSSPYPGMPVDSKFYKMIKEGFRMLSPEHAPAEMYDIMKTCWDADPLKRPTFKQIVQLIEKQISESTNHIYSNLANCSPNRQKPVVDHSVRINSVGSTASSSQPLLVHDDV

50% inhibition concentration (IC50), SCF-induced KIT tyrosine phosphorylation, cell-based phospho-KIT ELISA	Binder
~0.47 nM	B1

Biological target: T3, full-length, wild-type human KIT …
Test: cell-based or functional assay
Remark: another data set of the same source

Relative blocking activity, assay #2 (24-well): IC50 of inhibition of SCF-induced KIT phosphorylation, normalized to chimeric 37M antibody	Relative blocking activity, assay #4 (96-well): IC50 of inhibition of SCF-induced KIT phosphorylation, normalized to chimeric 37M antibody	Relative blocking activity, assay #1 (24-well): IC50 of inhibition of SCF-induced KIT phosphorylation, normalized to chimeric 37M antibody	Relative blocking activity, assay #3 (96-well): IC50 of inhibition of SCF-induced KIT phosphorylation, normalized to chimeric 37M antibody	Binder
1.2 relative to chimeric 37M antibody	0.86 relative to chimeric 37M antibody	–	–	B1
–	–	0.98 relative to chimeric 37M antibody	0.99 relative to chimeric 37M antibody	B3
0.94 relative to chimeric 37M antibody	–	–	–	B4
–	–	–	1.05 relative to chimeric 37M antibody	B5
1.22 relative to chimeric 37M antibody	–	–	–	B6
–	–	–	1 relative to chimeric 37M antibody	B7
–	1.4 relative to chimeric 37M antibody	1.09 relative to chimeric 37M antibody	0.98 relative to chimeric 37M antibody	B2

Biological target: T2, recombinant KIT D4/D5
Test: direct binding ELISA, plate-coated recombinant KIT D4/D5; assay #1 (supernatant)
Description: as §1

Relative binding activity	Binder
1.15 relative to chimeric antibody 37C (normalized EC50)	B8
0.87 relative to chimeric antibody 37C (normalized EC50)	B3
1.14 relative to chimeric antibody 37C (normalized EC50)	B4
1.08 relative to chimeric antibody 37C (normalized EC50)	B5
1.23 relative to chimeric antibody 37C (normalized EC50)	B9
0.8 relative to chimeric antibody 37C (normalized EC50)	B10
1.22 relative to chimeric antibody 37C (normalized EC50)	B6
1.12 relative to chimeric antibody 37C (normalized EC50)	B11
1.11 relative to chimeric antibody 37C (normalized EC50)	B7
1.11 relative to chimeric antibody 37C (normalized EC50)	B2
1.2 relative to chimeric antibody 37C (normalized EC50)	B12

Biological target: T2, recombinant KIT D4/D5
Test: solid phase ELISA, plate-adsorbed recombinant D4/D5 region of human KIT (FIG. 5)
Description: Recombinant antigen corresponding to the D4/D5 region of the KIT extracellular domain (see FIG. 2) was absorbed onto 96-well microtiter plates. In particular, recombinant antigen (5 μg) were diluted into 10 mL of borate buffer, and 100 μL of the antigen solution were added to each well of a 96 well plate and were incubated at 4° C. overnight.
ELISA: Following one rinse with TBS-T, blocking buffer (200 μL) was added to each well of the plate with the adsorbed antigen and was incubate at room temperature for one hour. Then, the blocking buffer was removed, and the serially diluted solutions of test antibodies and controls were added to the plate in a volume of 50 μL and incubated at room temperature for one hour. The antibody solutions were removed, and the plate was washed three times with 100 μL of wash buffer on a plate washer. After the last wash, the plate was blotted dry. Secondary antibody solution was diluted 1:8000 and was added to each well in a volume of 100 μL and allowed to incubate for one hour at room temperature. The diluted secondary antibody solution was removed, and the plate was washed three times with 100 μL of wash buffer on a plate washer. Then, freshly mixed TMB substrate solution was added to each well in a volume of 100 μL and was allowed to incubate at room temperature for 30 minutes. Subsequently, 100 μL of 2N H₂SO₄ were added to each well and immediately read on the plate reader. An irrelevant antibody served as the negative control, and an anti-KIT antibody against the D4 and/or D5 domain of the extracellular region of KIT served as the positive control. OD values for each sample were obtained at a wavelength of 450 nm.
Results were analyzed using Graph Pad Prism and Excel to obtain the concentration of antibodies at 50% binding to antigen.

EC50	Binder
~0.0075 nM	B1

Biological target: T1, murine KIT
Test: additional binding assays (format not described)

binding result	Binder
no binding	B1

Biological target: T2, recombinant KIT D4/D5
Test: direct binding ELISA, plate-coated recombinant KIT D4/D5; assay #2 (supernatant)
Description: as §1

Relative binding activity	Binder
0.64 relative to chimeric antibody 37C (normalized EC50)	B13
0.93 relative to chimeric antibody 37C (normalized EC50)	B14
0.91 relative to chimeric antibody 37C (normalized EC50)	B1
0.7 relative to chimeric antibody 37C (normalized EC50)	B8
0.74 relative to chimeric antibody 37C (normalized EC50)	B15
0.76 relative to chimeric antibody 37C (normalized EC50)	B3
0.88 relative to chimeric antibody 37C (normalized EC50)	B16
1.03 relative to chimeric antibody 37C (normalized EC50)	B4
0.79 relative to chimeric antibody 37C (normalized EC50)	B17
1 relative to chimeric antibody 37C (normalized EC50)	B5
0.72 relative to chimeric antibody 37C (normalized EC50)	B9
0.7 relative to chimeric antibody 37C (normalized EC50)	B10
0.79 relative to chimeric antibody 37C (normalized EC50)	B6
0.8 relative to chimeric antibody 37C (normalized EC50)	B11
0.78 relative to chimeric antibody 37C (normalized EC50)	B7
1.05 relative to chimeric antibody 37C (normalized EC50)	B2
1.02 relative to chimeric antibody 37C (normalized EC50)	B12

Biological target: T3, full-length, wild-type human KIT …
Test: flow cytometry on CHO cells expressing full-length wild-type human KIT (FIG. 6)
Description: Briefly, parental CHO cells and CHO/KIT-WT cells were washed and incubated with 0.01 nM, 0.1 nM, 1 nM or 10 nM of a chimeric (human-mouse) 37M antibody, antibody Hum17, Hum8, Hum4, or Hum10, a negative control isotype IgG antibody, or a commercial anti-KIT antibody as a positive control. The samples were processed for flow cytometry analysis. More specifically, cells were removed from the culture flasks using EDTA, and washed with PBS. Then, the cells were resuspended in media and counted. Each sample containing approximately 200,000 to 250,000 cells was spun, the media was removed, and the cells were resuspended in FC buffer (1% BSA, 0.01% sodium azide in 1×PBS) for the blocking step. The cells were incubated in FC buffer for 1 hour on ice. Then, primary antibody (e.g., a chimeric (human-mouse) 37M antibody, Hum17, Hum8, Hum4, Hum10, positive control anti-KIT antibody, or negative control antibody) was added to the cells in FC buffer as described above. The samples were mixed and incubated on ice for 1 hour, followed by washing the cells with 0.5-1 mL FC buffer. The FC buffer was removed by spinning the cells at 1200 rpm for 3 minutes at 4° C., decanting the liquid. The cell pellets were resuspended in 200 μL FC buffer, and secondary antibody (DyLight 488 AffiniPure Goat Anti-Mouse IgG Jackson Laboratories) was added to the cells at a 1:1000 to 1:2000 dilution. The samples were mixed and incubated on ice for 1 hour, and then washed as described above. The samples were run on a fluorescence activated cell sorter (FACS) machine (Accuri FlowCytometer C6). Samples were analyzed by following channel FLA-1 for DyLight-conjugated samples.

EC50	Binder
~0.106 nM	B1

Biological target: T2, recombinant KIT D4/D5
Test: direct binding ELISA, plate-coated recombinant KIT D4/D5; assay #3 (purified)
Description: as §1

Relative binding activity	Binder
1.07 relative to chimeric antibody 37C (normalized EC50)	B1
0.87 relative to chimeric antibody 37C (normalized EC50)	B3
0.74 relative to chimeric antibody 37C (normalized EC50)	B4
0.85 relative to chimeric antibody 37C (normalized EC50)	B5
0.99 relative to chimeric antibody 37C (normalized EC50)	B6
0.95 relative to chimeric antibody 37C (normalized EC50)	B2
